Data from patent US20190367631A1.
Numbering of substitutions follows the chain as printed. Names may count otherwise.

B1: H1H27747P-N297Q (antibody, human IgG1, V domains shown)
VH: QVQLVESGGAVVQPGRSLRLSCAASGFTFSYYGMHWVRQAPGKGLEWVAVISYDGSKKYYADSVKGRFTISRDNSKNTLYLQMNSLRAEDTAVYYCAKDLTVDFYYGMDVWGQGTTVTVSS
VL: DIQMTQSPSSVSASVGDRVTITCRASQGISSWLAWYQQKPGKAPKLLIYATSSLQSGAPSRFSGSGSGTDFTLTISSLQPEDFATYFCQQANSFPYTFGQGTKLEIKR
B2: H1H27754P-N297Q (antibody, human IgG1, V domains shown)
VH: EVQLVESGGGLVQPGGSLRLSCAASGFTFRTYAMTWVRQAPGKGLDWVSAITGDGGNTYYADSVKGRFTISRDNSKNTLYLQMNSLRAEDTAIYYCAKDQRFSFALYYFDYWGQGTLVTVSS
VL: B1 VL with K42N, T51A, S52F, A58V, F87Y, S93N, Y96W, L104V
B3: H1H21234N-N297Q (antibody, human IgG1, V domains shown)
VH: QVQLQESGPGLVKPSETLSLTCTVTGGSISRNYWSWIRQPPGKGLEWIGYIYYSGSIDYNPSLKSRVTISVDTSKNQFSLKLSSMTAADTAVYYCARDRWNWKYGMDVWGQGTTVIVSS
VL: EIVLTQSPGTLSLSPGERATLSCRASQTVRNNYLAWYHQKPGQAPRLLIYGASSRATGIPDRFSGSGSGTDFTLTISRLEPEDFTVYYCHQYGNSPWTFGQGTKMEIKR
B4: H1H27739P-N297Q (antibody, human IgG1, V domains shown)
VH: EVQLVESGGGLVQPGGSLRLSCTASGFTFSSYAMSWVRQAPGKGLEWVSAISGTGSSTYFTDSVKGRFAISRDNSKNTLYLQMNSLRAEDTAVYYCAKDGEWLSTVTLFDYWGQGTLVTVSS
VL: EIVMTQSPATLSVSPGERATLSCRASQSVSSNLAWYQQKPGQAPRLLIYGASTRATGIPARFSGSGSGTDFTLTISSLQSEDFALYYCQQYFIWPPHPTFGPGTKVDIKR
B5: H1H27729P-N297Q (antibody, human IgG1, V domains shown)
VH: QVQLVESGGGLVKPGGSLRLSCAASGFIFSDYYMSWIRQAPGKGLEWVSYISSSGTTIYGDSVKGRFTMSRDNAKNSLYLQMNSLRAEDTAVYYCARNYALFDYWGQGTLVTVSS
VL: DIQMTQSPSSLSASVGDRVTITCQASQDISKYLNWYQQKPGKAPKLLIYYTSNLETGVPSRFSGSGSGTDFTFTISSLQPEDIATYYCHQSDYLPFTFGPGTKVDIKR
B6: H1H21227N-N297Q (antibody, human IgG1, V domains shown)
VH: QVQLVQSGAEVKKPGASVKVSCKVSGYTLTELSIHWVRQVPGKGLEWMGGFDPEEGETIFAQEFRDRVTLTEDTSPDTAYMELSSLKSEDAAVYYCTTPRYCNNGICYDYWGQGTLVTVSS
VL: DIQMTQSPSSLSASVGDRVTITCRASQSISNYLNWYQQKPGKAPKLLIYTASSLQSGVPSRFSGSGSGTDFTLTISSLQTEDFATYYCQQSYSNFPITFGQGTRLEIKR
B7: H1H27734P-N297Q (antibody, human IgG1, V domains shown)
VH: EVQLVESRGGLVQPGGSLRLSCAASGFTFSSYAMSWVRQAPGKGLEWVSAISGSGGSTFYADSVKGRFTISRDNSKNTVYLQMNSLRAEDTAVYYCAKALVLRFLEWLGDYWGQGTLVTVSS
VL: DIQMTQSPSTLSASVGDRVTITCRASQSISSWLAWFQQKPGKAPKLLIYKASSLESGVPSRFSGSGSGTEFTLTISSLQPDDFATYYCQQYKSYWTFGQGTKVEIKR
B8: H1H21234N (antibody, human IgG1, V domains shown)
VH: B3 VH
VL: B3 VL
B9: H2aM25695N (antibody, mouse IgG2a, V domains shown)
VH: B3 VH with D58N, T73M, S83N, M85V
VL: B3 VL with N32S, T85A, H90Q, N94S, P96Y
B10: H2aM21229N (antibody, mouse IgG2a, V domains shown)
VH: EVQLVESGGGLVKPGGSLRLSCAASGFTFSRYSMNWVRQAPGKGLEWVSSISSSSSYIYYGDTVKGRFTISRDNAKKSLYLQMNSLRAEDTAVYYCVRDRGQLVLYFDYWGQGTLVTVSS
VL: DIQMTQSPASLSTSIRDRVTITCRASLSISSFLNWFQQRPGKAPKLLIYVASNLQSGVPSRFSDSGSGTDFTLTISSLQPEDFATYYCQQNYSTPPITFGQGTRLEIK
B11: H2aM25700N (antibody, mouse IgG2a, V domains shown)
VH: QVQLVQSGSEVKKPGASVKVSCKVSGYTLTELSIHWVRQAPGKGLEWMGGFDPEDGETIYAQKFRGRVTMTEDISPDTAYMELSSLRSEDTAVYYCATPRYCNNGICYDYWGQGTLVTVSS
VL: B6 VL with V15I, N31S, K45M, T50A, N94T, F95P
B12: H1H21227N (antibody, human IgG1, V domains shown)
VH: B6 VH
VL: B6 VL
B13: H1H21227N-N297D (antibody, human IgG1, V domains shown)
VH: B6 VH
VL: B6 VL
B14: H2aM25690N (antibody, mouse IgG2a, V domains shown)
VH: EVQLLESGGGLVQPGGSLRLSCAASGFTFSNYAMTWVRQAPGTGLEWVSAISGRGSNTYYTDSVKGRFTISRDNSKNMLYLQMNSLRAEDTASYYCAKDRFTTVGNWFDPWGQGTLVTVSS
VL: B6 VL with N31S, T50A, S56N, T80P, N94S, F95L, E106D
B15: H1H21231N (antibody, human IgG1, V domains shown)
VH: EVQLVESGGGLVQPGGSLRLSCAASGFTFSDHYMDWVRQAPGKGLEWVGRTRNKANSHTTEYTASVTGRFTISRDDSRNSLYLQMNSLKTEDTAVYYCVRAGIIGTLFDYWGQGTLVTVSS
VL: B6 VL with S7F, N31S, Y32F, Y36F, L46F, T50A, T80P, N94S, F95P
B16: H1H21231N-N297Q (antibody, human IgG1, V domains shown)
VH: B15 VH
VL: B6 VL with S7F, N31S, Y32F, Y36F, L46F, T50A, T80P, N94S, F95P

Target: endogenously expressed human MSR1 on PMA-treated THP-1 cells (human) (UniProt P21757)
Sequence (P21757 whole entry): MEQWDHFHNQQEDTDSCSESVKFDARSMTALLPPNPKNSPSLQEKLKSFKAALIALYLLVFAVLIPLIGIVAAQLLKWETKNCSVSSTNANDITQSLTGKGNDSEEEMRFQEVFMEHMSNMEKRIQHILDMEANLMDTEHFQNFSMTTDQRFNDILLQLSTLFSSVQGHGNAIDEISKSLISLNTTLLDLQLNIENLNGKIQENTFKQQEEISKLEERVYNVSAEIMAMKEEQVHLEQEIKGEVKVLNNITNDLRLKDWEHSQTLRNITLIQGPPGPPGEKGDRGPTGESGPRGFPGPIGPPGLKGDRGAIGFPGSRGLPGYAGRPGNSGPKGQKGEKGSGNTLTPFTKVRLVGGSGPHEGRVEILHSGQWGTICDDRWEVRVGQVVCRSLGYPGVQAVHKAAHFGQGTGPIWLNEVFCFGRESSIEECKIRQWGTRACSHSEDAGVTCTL
Assay: confocal imaging, differentiated THP-1 cells, Alexa 488 secondary

Total Binding at 4° C. (RFU) | Total Binding at 37° C. (RFU) | Binder
2.52e+06 RFU | 5.92e+06 RFU | B1
3.08e+06 RFU | 7.16e+06 RFU | B2
1.95e+06 RFU | 5.45e+06 RFU | B3
3.7e+06 RFU | 5.61e+06 RFU | B4
1.93e+06 RFU | 6.61e+06 RFU | B5
1.8e+06 RFU | 4.11e+06 RFU | B6
483000 RFU | 1.15e+06 RFU | B7

Target: endogenously expressed human MSR1 on PMA-treated THP-1 cells (human) (UniProt P21757)
Assay: ECL cell binding, PMA-treated THP-1 cells, 11 nM

ratio of binding signal (RLU) to isotype control | Binder
13 fold | B1
66 fold | B2
25 fold | B3
18 fold | B8
8 fold | B9
9 fold | B4
56 fold | B10
8 fold | B5
5 fold | B6
3 fold | B11
7 fold | B12
6 fold | B13
25 fold | B14
42 fold | B15
45 fold | B16
21 fold | B7

Target: endogenously expressed human MSR1 on PMA-treated THP-1 cells (human) (UniProt P21757)
Assay: cell-based or functional assay

% Internalization | Total Internalized RFU | Binder
58.2% | 3.44e+06 RFU | B1
90% | 6.45e+06 RFU | B2
13.3% | 723000 RFU | B3
71.6% | 4.02e+06 RFU | B4
57% | 3.76e+06 RFU | B5
78.5% | 3.23e+06 RFU | B6
 | 737000 RFU | B7
